Measured values reported in patent publication US20240124563A1 (NANJING ZAIMING PHARMACEUTICAL, published 2024).

T1: human MSLN-R3-3 polypeptide (purchased from GL Biochem, Cat. No. 406676) (human)
T1 construct: Printed as Val539-Val588; also called hMSLN-R3-3
T1 peptide: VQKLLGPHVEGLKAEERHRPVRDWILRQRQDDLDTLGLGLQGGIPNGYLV


Key:
[1] = molecular target: T2, human MSLN-R3-his protein (human, UniProt Q13421 487-598); assay: ELISA, coated antigen, 1 nM antibody
T2 construct: also called hMSLN-R3-his; not shown: histidine tag

[2] = molecular target: T2, human MSLN-R3-his protein; assay: ELISA, coated antigen, 10 nM antibody
[3] = molecular target: T3, human MSLN-R2-his protein (human, UniProt Q13421 391-486); assay: ELISA, coated antigen, 20 nM antibody
T3 construct: also called hMSLN-R2-his; not shown: histidine tag

[4] = molecular target: T2, human MSLN-R3-his protein; assay: ELISA, coated antigen, 20 nM antibody
[5] = molecular target: T2, human MSLN-R3-his protein; assay: ELISA, coated antigen, 0.1 nM antibody
[6] = molecular target: T2, human MSLN-R3-his protein; assay: ELISA, coated antigen, 100 nM antibody
[7] = molecular target: T3, human MSLN-R2-his protein; assay: ELISA, coated antigen, 0.2 nM antibody
[8] = molecular target: T2, human MSLN-R3-his protein; assay: ELISA, coated antigen, 0.2 nM antibody
[9] = molecular target: T2, human MSLN-R3-his protein; assay: ELISA, coated antigen, 0.01 nM antibody
[10] = molecular target: T2, human MSLN-R3-his protein; assay: ELISA, coated antigen, 0.001 nM antibody
[11] = molecular target: T2, human MSLN-R3-his protein; assay: ELISA, coated antigen, 0.0001 nM antibody
[12] = molecular target: T2, human MSLN-R3-his protein; assay: ELISA, coated antigen, 0 nM antibody (blank)
[13] = molecular target: T4, human MSLN-R2-his protein (human, UniProt Q13421 391-486); assay: ELISA, antibody 1 nM
T4 construct: MSLN-R2 = Ser391-Asn486; also called hMSLN-R2-his; not shown: histidine tag

[14] = molecular target: T5, human MSLN-R3-his protein (human, UniProt Q13421 487-598); assay: ELISA, antibody 1 nM
T5 construct: MSLN-R3 = Met487-Ser598; also called hMSLN-R3-his; not shown: histidine tag

[15] = molecular target: T4, human MSLN-R2-his protein; assay: ELISA, antibody 1 nM; remark: listed apart in the source
[16] = molecular target: T5, human MSLN-R3-his protein; assay: ELISA, antibody 1 nM; remark: listed apart in the source
[17] = molecular target: T1, human MSLN-R3-3 polypeptide (purchased …); assay: ELISA, antibody 1 nM
[18] = molecular target: T4, human MSLN-R2-his protein; assay: ELISA, antibody 10 nM
[19] = molecular target: T5, human MSLN-R3-his protein; assay: ELISA, antibody 10 nM
[20] = molecular target: T4, human MSLN-R2-his protein; assay: ELISA, antibody 0.1 nM
[21] = molecular target: T4, human MSLN-R2-his protein; assay: ELISA, antibody 100 nM
[22] = molecular target: T5, human MSLN-R3-his protein; assay: ELISA, antibody 0.1 nM
[23] = molecular target: T5, human MSLN-R3-his protein; assay: ELISA, antibody 100 nM
[24] = molecular target: T4, human MSLN-R2-his protein; assay: ELISA, antibody 0.01 nM
[25] = molecular target: T5, human MSLN-R3-his protein; assay: ELISA, antibody 0.01 nM
[26] = molecular target: T4, human MSLN-R2-his protein; assay: ELISA, antibody 0.001 nM
[27] = molecular target: T5, human MSLN-R3-his protein; assay: ELISA, antibody 0.001 nM
[28] = molecular target: T4, human MSLN-R2-his protein; assay: ELISA, antibody 0.0001 nM
[29] = molecular target: T5, human MSLN-R3-his protein; assay: ELISA, antibody 0.0001 nM
[30] = molecular target: T4, human MSLN-R2-his protein; assay: ELISA, antibody 0 nM (blank)
[31] = molecular target: T5, human MSLN-R3-his protein; assay: ELISA, antibody 0 nM (blank)
[32] = molecular target: T6, chimeric human MSLN-R3 / chicken MSLN-R1-2 protein on HEK293T cells (clone A5) (chicken; human); assay: FACS, HEK293T-hR3/chickR1-2-A5 cells, antibody 20 nM
T6 construct: range 327-514; Human R1-R2 replaced by chicken R1-R2; also called HEK293T-chickR1-2/hR3-A5; HEK293T-hR3/chickR1-2-A5
T6 sequence (Q13421 495-614, change not shown): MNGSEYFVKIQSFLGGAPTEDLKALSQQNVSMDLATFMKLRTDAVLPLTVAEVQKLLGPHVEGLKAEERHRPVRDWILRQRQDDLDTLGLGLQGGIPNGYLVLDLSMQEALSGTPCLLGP

[33] = molecular target: T6, chimeric human MSLN-R3 / chicken …; assay: FACS, HEK293T-hR3/chickR1-2-A5 cells, antibody 0.2 nM

| Binder | OD450 nm [13] | OD450 nm [14] | OD450 nm [15] | OD450 nm [16] | OD450 nm [17] | OD450 nm [18] | OD450 nm [19] | OD450 nm [20] | OD450 nm [21] | OD450 nm [22] | OD450 nm [23] | OD450 nm [24] | OD450 nm [25] | OD450 nm [26] | OD450 nm [27] | OD450 nm [28] | OD450 nm [29] | OD450 nm [30] | OD450 nm [31] | also measured |
| --- | --- | --- | --- | --- | --- | --- | --- | --- | --- | --- | --- | --- | --- | --- | --- | --- | --- | --- | --- | --- |
| Tab106 (YP218, hIgG1) (antibody, V domains shown, also called YP218 human IgG1 antibody) VH: QQQLEESGGGLVKPEGSLTLTCKASGFDLGFYFYACWVRQAPGKGLEWIACIYTAGSGSTYYASWAKGRFTISKASSTTVTLQMTSLAAADTATYFCARSTANTRSTYYLNLWGPGTLVTVSS VL: DVVMTQTPASVSEPVGGTVTIKCQASQRISSYLSWYQQKPGQRPKLLIFGASTLASGVPSRFKGSGSGTEYTLTISDLECADAATYYCQSYAYFDSNNWHAFGGGTEVVVRT [Tab106 (YP218, hIgG1), listing 1 of 2 here] |  |  |  |  |  |  |  |  |  |  |  |  |  |  |  |  |  |  |  | OD450 nm [1]: 0.22 OD450 nm; OD450 nm [2]: 1.04 OD450 nm; OD450 nm [3]: 1.44 OD450 nm; OD450 nm [4]: 1.89 OD450 nm; OD450 nm [5]: 0.07 OD450 nm; OD450 nm [6]: 1.81 OD450 nm; OD450 nm [7]: 0.13 OD450 nm; OD450 nm [8]: 0.87 OD450 nm; OD450 nm [9]: 0.05 OD450 nm; OD450 nm [10]: 0.05 OD450 nm; OD450 nm [11]: 0.05 OD450 nm; OD450 nm [12]: 0.05 OD450 nm |
| Tab020 (YP223, rabbitIgG1) (antibody, V domains shown, also called YP223 rabbit IgG1 antibody; rabbit anti-human MSLN antibody (Tab020)) VH: QEQLEESGGDLVQPEGSLTLTCKASGLDFSSSYWICWVRQAPGKGLEWIGCRHTFTANTWSASWVNGRFTISRSTSLGTVDLKMTSLTAADTATYFCARDESNNDGWDFKLWGPGTLVTVSS VL: AYDMTQTPASVSAAVGGTVTIKCQASQSISNYLAWYQQKPGQPPKLLIYQASTLAPGVSSRFKGSGSGTEFTLTISGVECADAATYYCQQGYTSSNVENVFGGGTGVVVGD | 1.49 | 0.05 | 1.49 | 0.05 | 0.09 | 2.01 | 0.05 | 0.2 | 2.5 | 0.05 | 0.05 | 0.07 | 0.05 | 0.05 | 0.05 | 0.05 | 0.05 | 0.05 | 0.05 |  |
| Tab106 (YP218, hIgG1) (antibody, V domains shown, also called YP218 human IgG1 antibody; anti-human MSLN-R3 antibody (Tab106)) VH: QQQLEESGGGLVKPEGSLTLTCKASGFDLGFYFYACWVRQAPGKGLEWIACIYTAGSGSTYYASWAKGRFTISKASSTTVTLQMTSLAAADTATYFCARSTANTRSTYYLNLWGPGTLVTVSS VL: DVVMTQTPASVSEPVGGTVTIKCQASQRISSYLSWYQQKPGQRPKLLIFGASTLASGVPSRFKGSGSGTEYTLTISDLECADAATYYCQSYAYFDSNNWHAFGGGTEVVVRT | 0.05 | 0.62 | 0.05 | 0.62 | 0.98 | 0.11 | 1.75 | 0.05 | 0.7 | 0.12 | 2.29 | 0.04 | 0.06 | 0.04 | 0.05 | 0.04 | 0.05 | 0.05 | 0.05 |  |
| Tab106 (YP218, hIgG1) (antibody, V domains shown, also called YP218 human IgG1 antibody) VH: QQQLEESGGGLVKPEGSLTLTCKASGFDLGFYFYACWVRQAPGKGLEWIACIYTAGSGSTYYASWAKGRFTISKASSTTVTLQMTSLAAADTATYFCARSTANTRSTYYLNLWGPGTLVTVSS VL: DVVMTQTPASVSEPVGGTVTIKCQASQRISSYLSWYQQKPGQRPKLLIFGASTLASGVPSRFKGSGSGTEYTLTISDLECADAATYYCQSYAYFDSNNWHAFGGGTEVVVRT [Tab106 (YP218, hIgG1), listing 2 of 2 here] |  |  |  |  |  |  |  |  |  |  |  |  |  |  |  |  |  |  |  | MFI [32]: 17900; MFI [33]: 767 |
